According to paper PMC10397247:

Key:
4H3070-bA = biological target: T1, 4H3070-bA; assay: two-hybrid library CCNG1;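 note: natural log of median RNA to DNA barcode read ratio; higher means stronger binding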
T1 chain: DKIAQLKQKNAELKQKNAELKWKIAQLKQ

4H496-bA = biological target: T2, 4H496-bA; assay: two-hybrid library CCNG1;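 note: natural log of median RNA to DNA barcode read ratio; higher means stronger binding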
T2 chain: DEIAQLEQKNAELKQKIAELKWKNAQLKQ

4H2691-bA = biological target: T3, 4H2691-bA; assay: two-hybrid library CCNG1;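 note: natural log of median RNA to DNA barcode read ratio; higher means stronger binding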
T3 chain: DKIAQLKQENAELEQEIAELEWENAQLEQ

4H342-bA = biological target: T4, 4H342-bA; assay: two-hybrid library CCNG1;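 note: natural log of median RNA to DNA barcode read ratio; higher means stronger binding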
T4 chain: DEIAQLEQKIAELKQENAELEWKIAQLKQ

4H953-bH = biological target: T5, 4H953-bH; assay: two-hybrid library CCNG1;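 note: natural log of median RNA to DNA barcode read ratio; higher means stronger binding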
T5 chain: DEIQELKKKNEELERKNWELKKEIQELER

4H3632-bA = biological target: T6, 4H3632-bA; assay: two-hybrid library CCNG1;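 note: natural log of median RNA to DNA barcode read ratio; higher means stronger binding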
T6 chain: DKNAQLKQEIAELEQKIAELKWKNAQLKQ

P8mSN = biological target: T7, P8mSN; assay: two-hybrid library CCNG1
T7 chain: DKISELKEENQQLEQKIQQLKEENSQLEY

P4bH1 = biological target: T8, P4bH1; assay: two-hybrid library CCNG1
T8 chain: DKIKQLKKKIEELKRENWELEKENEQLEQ

P4mSN = biological target: T9, P4mSN; assay: two-hybrid library CCNG1
T9 chain: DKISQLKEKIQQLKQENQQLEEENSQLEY

P9mSN = biological target: T10, P9mSN; assay: two-hybrid library CCNG1
T10 chain: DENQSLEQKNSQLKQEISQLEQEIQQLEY

P3mSN = biological target: T11, P3mSN; assay: two-hybrid library CCNG1
T11 chain: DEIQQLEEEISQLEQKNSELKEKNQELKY

P5mSN = biological target: T12, P5mSN; assay: two-hybrid library CCNG1
T12 chain: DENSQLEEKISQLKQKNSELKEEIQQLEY

P7mSN = biological target: T13, P7mSN; assay: two-hybrid library CCNG1
T13 chain: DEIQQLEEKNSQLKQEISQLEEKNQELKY

P2mSN = biological target: T14, P2mSN; assay: two-hybrid library CCNG1
T14 chain: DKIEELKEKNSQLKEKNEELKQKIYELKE

P6mSN = biological target: T15, P6mSN; assay: two-hybrid library CCNG1
T15 chain: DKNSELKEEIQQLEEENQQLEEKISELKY

4H249-AA = biological target: T16, 4H249-AA; assay: two-hybrid library CCmax
T16 chain: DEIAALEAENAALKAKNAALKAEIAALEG

4H2774-AA = biological target: T17, 4H2774-AA; assay: two-hybrid library CCmax; conditions: mean of both orientations
T17 chain: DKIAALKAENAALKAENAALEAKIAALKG

4H2903-AA = biological target: T18, 4H2903-AA; assay: two-hybrid library CCmax; conditions: mean of both orientations
T18 chain: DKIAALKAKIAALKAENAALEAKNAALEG

4H3094-AA = biological target: T19, 4H3094-AA; assay: two-hybrid library CCmax; conditions: mean of both orientations
T19 chain: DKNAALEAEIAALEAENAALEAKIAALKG

4H2961-AA = biological target: T20, 4H2961-AA; assay: two-hybrid library CCmax; conditions: mean of both orientations
T20 chain: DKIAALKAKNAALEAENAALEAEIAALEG

4H1384-AA = biological target: T21, 4H1384-AA; assay: two-hybrid library CCmax
T21 chain: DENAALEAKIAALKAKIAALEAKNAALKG

4H2580-AA = biological target: T22, 4H2580-AA; assay: two-hybrid library CCmax; conditions: mean of both orientations
T22 chain: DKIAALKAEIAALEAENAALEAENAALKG

4H1593-AA = biological target: T23, 4H1593-AA; assay: two-hybrid library CCmax; conditions: mean of both orientations
T23 chain: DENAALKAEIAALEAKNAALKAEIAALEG

4H1878-AA = biological target: T24, 4H1878-AA; assay: two-hybrid library CCmax; conditions: mean of both orientations
T24 chain: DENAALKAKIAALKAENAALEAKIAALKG

4H432-AA = biological target: T25, 4H432-AA; assay: two-hybrid library CCmax; conditions: mean of both orientations
T25 chain: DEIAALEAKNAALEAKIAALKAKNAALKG

4H235-AA = biological target: T26, 4H235-AA; assay: two-hybrid library CCmax; conditions: mean of both orientations
T26 chain: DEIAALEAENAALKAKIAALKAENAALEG

4H2760-AA = biological target: T27, 4H2760-AA; assay: two-hybrid library CCmax; conditions: mean of both orientations
T27 chain: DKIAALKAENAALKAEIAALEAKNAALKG

4H63-AA = biological target: T28, 4H63-AA; assay: two-hybrid library CCmax; conditions: mean of both orientations
T28 chain: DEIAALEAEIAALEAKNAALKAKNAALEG

4H2621-AA = biological target: T29, 4H2621-AA; assay: two-hybrid library CCmax; conditions: mean of both orientations
T29 chain: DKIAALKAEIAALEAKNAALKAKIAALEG

4H3777-AA = biological target: T30, 4H3777-AA; assay: two-hybrid library CCmax; conditions: mean of both orientations
T30 chain: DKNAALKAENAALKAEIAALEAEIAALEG

4H3449-AA = biological target: T31, 4H3449-AA; assay: two-hybrid library CCmax; conditions: mean of both orientations
T31 chain: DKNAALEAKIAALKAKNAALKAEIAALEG

4H324-AA = biological target: T32, 4H324-AA; assay: two-hybrid library CCmax; conditions: mean of both orientations
T32 chain: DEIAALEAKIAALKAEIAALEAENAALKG

4H380-AA = biological target: T33, 4H380-AA; assay: two-hybrid library CCmax; conditions: mean of both orientations
T33 chain: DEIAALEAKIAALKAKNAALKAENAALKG

4H1449-AA = biological target: T34, 4H1449-AA; assay: two-hybrid library CCmax; conditions: mean of both orientations
T34 chain: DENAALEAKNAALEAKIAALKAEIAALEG

4H3629-AA = biological target: T35, 4H3629-AA; assay: two-hybrid library CCmax; conditions: mean of both orientations
T35 chain: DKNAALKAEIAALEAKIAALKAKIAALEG

4H2947-AA = biological target: T36, 4H2947-AA; assay: two-hybrid library CCmax; conditions: mean of both orientations
T36 chain: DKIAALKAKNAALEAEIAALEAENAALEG

4H341-AA = biological target: T37, 4H341-AA; assay: two-hybrid library CCmax; conditions: mean of both orientations
T37 chain: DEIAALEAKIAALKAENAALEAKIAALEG

4H3619-AA = biological target: T38, 4H3619-AA; assay: two-hybrid library CCmax; conditions: mean of both orientations
T38 chain: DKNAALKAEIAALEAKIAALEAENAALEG

4H3049-AA = biological target: T39, 4H3049-AA; assay: two-hybrid library CCmax; conditions: mean of both orientations
T39 chain: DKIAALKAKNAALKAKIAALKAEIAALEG

4H3915-AA = biological target: T40, 4H3915-AA; assay: two-hybrid library CCmax; conditions: mean of both orientations
T40 chain: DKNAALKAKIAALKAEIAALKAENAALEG

4H2604-AA = biological target: T41, 4H2604-AA; assay: two-hybrid library CCmax; conditions: mean of both orientations
T41 chain: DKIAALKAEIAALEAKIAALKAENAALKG

4H446-AA = biological target: T42, 4H446-AA; assay: two-hybrid library CCmax; conditions: mean of both orientations
T42 chain: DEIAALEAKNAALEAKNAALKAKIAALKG

4H3974-AA = biological target: T43, 4H3974-AA; assay: two-hybrid library CCmax; conditions: mean of both orientations
T43 chain: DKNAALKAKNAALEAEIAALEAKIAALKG

B1: 4H2691-bA (peptide)
chain: DKIAQLKQENAELEQEIAELEWENAQLEQ
4H3070-bA
  interaction score: 0.439
4H496-bA
  interaction score: -3.04
4H2691-bA
  interaction score: -1.17
4H342-bA
  interaction score: -0.443
4H953-bH
  interaction score: -0.501
4H3632-bA
  interaction score: -0.861

B2: P2mSN (peptide)
chain: DKIEELKEKNSQLKEKNEELKQKIYELKE
P8mSN
  interaction score: -1.26
P4bH1
  interaction score: -1.37
P4mSN
  interaction score: -0.0295
P9mSN
  interaction score: -1.13
P3mSN
  interaction score: -0.831
P5mSN
  interaction score: -0.724
P7mSN
  interaction score: -0.243
P2mSN
  interaction score: -1.97
P6mSN
  interaction score: -0.752

B3: 4H1384-AA (peptide)
chain: DENAALEAKIAALKAKIAALEAKNAALKG
4H249-AA
  interaction score: -1.81
4H2774-AA
  interaction score: -1.81
4H2903-AA
  interaction score: -0.437
4H3094-AA
  interaction score: -0.731
4H2961-AA
  interaction score: -1.37
4H1384-AA
  interaction score: 0.25
4H2580-AA
  interaction score: 0.35
4H1593-AA
  interaction score: -1.48
4H1878-AA
  interaction score: -1.08
4H432-AA
  interaction score: -1.33
4H235-AA
  interaction score: -1.3
4H2760-AA
  interaction score: -1.74
4H63-AA
  interaction score: -0.475
4H2621-AA
  interaction score: -0.862
4H3777-AA
  interaction score: 0.578
4H3449-AA
  interaction score: -1.82
4H324-AA
  interaction score: 0.82
4H380-AA
  interaction score: -1.4
4H1449-AA
  interaction score: -1.1
4H3629-AA
  interaction score: 0.973
4H2947-AA
  interaction score: -1.05
4H341-AA
  interaction score: -0.177
4H3619-AA
  interaction score: 2.13
4H3049-AA
  interaction score: -0.361
4H3915-AA
  interaction score: -0.264
4H2604-AA
  interaction score: 1.45
4H446-AA
  interaction score: -2.33
4H3974-AA
  interaction score: 0.121
